In patent US20230174596A1 (published 2023):

Molecular target: T1, hVEGF-A (8-109) (human, UniProt P15692 214-315)
T1 construct: residue numbers count on mature VEGF-A; dimer
T1 sequence (looked up): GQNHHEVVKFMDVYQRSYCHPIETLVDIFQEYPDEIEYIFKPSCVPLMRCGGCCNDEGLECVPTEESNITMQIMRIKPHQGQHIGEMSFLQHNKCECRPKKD
Test: spot phage ELISA

Binder	ELISA	S/N
GCDIMQPLWGCKQDSDCLAGCVCHWYQSCG (designed binder) [VEGF_CKP9.L1.68]	2	23.2
GCKIMQPLWGCKQDSDCLAGCVCLWYDSCG (designed binder) [VEGF_CKP9.47]	1	14.6
GCQLLEPMWGCKQDSDCLAGCVCHWYNSCG (designed binder) [VEGF_CKP9.9]	1.1	19.7
GCDLMQPLWGCKQDSDCLAGCVCHWYQSCG (designed binder) [VEGF_CKP9.L1.76]	2.5	17.4
GCQDPTVNWAVYCKQDSDCLAGCVCQFYQSCG (designed binder) [VEGF_CKP7.17]	0.8	13.4
GCQDPTFNWAEYCKQDSDCLAGCVCQLYQSCG (designed binder) [VEGF_CKP7.19]	0.6	11.1
GCNPMLPFWGCKQDSDCLAGCVCHWYQSCG (designed binder) [VEGF_CKP9.L1.57]	3.7	31.8
GCNPMLPLWGCKQDSDCLAGCVCHWYQSCG (designed binder) [VEGF_CKP9.L1.78]	3	25.1
GCRLLEPSWGCKQDSDCLAGCVCQWYQSCG (designed binder) [VEGF_CKP9.72]	0.6	10
GCDDPSFDWSVYCKQDSDCLAGCVCRMYDSCG (designed binder) [VEGF_CKP7.2]	1.2	21.5
GCALLQPLWGCKQDSDCLAGCVCRWYNSCG (designed binder) [VEGF_CKP9.69]	1	14.3
GCNIMLPFWGCGWDQFCLAGCVCQYYQSCG (designed binder) [VEGF_CKP9.54.51]	2.5	44.5
GCNIMLPFWGCGVDYLCLAGCVCQYYQSCG (designed binder) [VEGF_CKP9.54.16]	2.4	30.8
GCQLMQPFWGCKQDSDCLAGCVCRWYHSCG (designed binder) [VEGF_CKP9.L5.43]	0.9	13.6
GCDRMQPYWGCKQDSDCLAGCVCQWYKSCG (designed binder) [VEGF_CKP9.11]	1.1	14.1
GCQLMQPFWGCKQDSDCLAGCVCHWYQSCG (designed binder) [VEGF_CKP9.L5.18]	1.6	20.4
GCWDPTFNWALYCKQDSDCLAGCVCQMYDSCG (designed binder) [VEGF_CKP7.24]	0.8	13.4
GCGETVFEQFLWCKQDSDCLAGCVCGPNGFCG (designed binder) [VEGF_CKP2]	3.2	48.1
GCNVLLPLWGCKQDSDCLAGCVCHWYQSCG (designed binder) [VEGF_CKP9.L1.64]	2.3	19.9
GCNIMLPFWGCGYDLQCLAGCVCQYYQSCG (designed binder) [VEGF_CKP9.54.87]	2.4	26.1
GCNIMLPFWGCSRDFDCLAGCVCQYYQSCG (designed binder) [VEGF_CKP9.54.44]	2.4	34.4
GCQLLQPLWGCKQDSDCLAGCVCRWYQSCG (designed binder) [VEGF_CKP9.71]	1	16.5
GCQRTQPFWGCKQDSDCLAGCVCRWYQSCG (designed binder) [VEGF_CKP9.22]	1.2	17.2
GCNIMLPFWGCGLDYDCLAGCVCQYYQSCG (designed binder) [VEGF_CKP9.54.2]	0.1	26
GCQVLQPSWGCKQDSDCLAGCVCHWYQSCG (designed binder) [VEGF_CKP9.L1.79]	1.2	10
GCNIMLPFWGCGQSFECLAGCVCQYYQSCG (designed binder) [VEGF_CKP9.54.1]	2.4	29.9
GCNIMLPFWGCGKELNCLAGCVCQYYQSCG (designed binder) [VEGF_CKP9.54.69]	2.5	21.7

Binder	ELISA	S/N
GCHLLLPLWGCKQDSDCLAGCVCRWYHSCG (designed binder) [VEGF_CKP9.76]	1.3	15.5
GCNIMLPFWGCSGDFACLAGCVCQYYQSCG (designed binder) [VEGF_CKP9.54.64]	2.2	22.4
GCHLFEPLWGCKQDSDCLAGCVCHWYQSCG (designed binder) [VEGF_CKP9.L1.2]	1.6	12.5
GCKLFEPLWGCKQDSDCLAGCVCRWYESCG (designed binder) [VEGF_CKP9.96]	1.2	18.4
GCQLMQPFWGCKQDSDCLAGCVCRWYNSCG (designed binder) [VEGF_CKP9.L5.7]	1.4	18.9
GCETDWYPHQIDCKQDSDCLAGCVCGPNGFCG (designed binder) [VEGF_CKP1]	0.9	16.9
GCNIMLPFWGCGKDFHCLAGCVCQYYQSCG (designed binder) [VEGF_CKP9.54.56]	2.3	35.8
GCQLMHPFWGCKQDSDCLAGCVCHWYRSCG (designed binder) [VEGF_CKP8]	3.9	59.4
GCPAIQNWKEHPCKQDSDCLAGCVCSWWPSLCG (designed binder) [VEGF_CKP5]	1.9	28.4
GCNIMLPFWGCQADYACLAGCVCQYYQSCG (designed binder) [VEGF_CKP9.54.14]	2.5	23.5
GCPRILMRCKQDSDCLAGCVCGPNGFCG [EETI-II]	0.01	1.11
GCNLMHPFWGCKQDSDCLAGCVCHWYQSCG (designed binder) [VEGF_CKP9.51]	1	11
GCQVMQPAWGCKQDSDCLAGCVCHWYQSCG (designed binder) [VEGF_CKP9.L1.8]	1.2	12.8
GCNIMLPFWGCGPDLQCLAGCVCQYYQSCG (designed binder) [VEGF_CKP9.54.59]	2.3	35.4
GCQISQPFWGCKQDSDCLAGCVCHFYNSCG (designed binder) [VEGF_CKP9.3]	1.6	24.5
GCQVMRPFWGCKQDSDCLAGCVCHWYQSCG (designed binder) [VEGF_CKP9.L1.7]	1.5	8.9
GCNIMLPFWGCGPELNCLAGCVCQYYQSCG (designed binder) [VEGF_CKP9.54.12]	2.4	38.8
GCKLLQPMWGCKQDSDCLAGCVCRWYQSCG (designed binder) [VEGF_CKP9.14]	2	30.1
GCHRLQPLWGCKQDSDCLAGCVCHWYQSCG (designed binder) [VEGF_CKP9.L1.19]	1.4	11.6
GCRTPWEPHDITCKQDSDCLAGCVCGPNGFCG (designed binder) [VEGF_CKP11]	4.1	57.5
GCVTPWKPHWINCKQDSDCLAGCVCGPNGFCG (designed binder) [VEGF_CKP13]	3.5	56.3
GCKNPLFNWALYCKQDSDCLAGCVCQLFDSCG (designed binder) [VEGF_CKP7.8]	0.5	7.5
GCNIMLPFWGCGTNFLCLAGCVCQYYQSCG (designed binder) [VEGF_CKP9.54.31]	2.3	32.5
GCKKWQWWYMCKQDSDCLAGCVCYPWTECG (designed binder) [VEGF_CKP4]	2.6	35.3
GCNIMLPFWGCGWSMDCLAGCVCQYYQSCG (designed binder) [VEGF_CKP9.54.76]	2.7	42.2
GCDVLQPFWGCKQDSDCLAGCVCHWYQSCG (designed binder) [VEGF_CKP9.2]	2.4	31.1
GCNIMLPFWGCNRDFLCLAGCVCQYYQSCG (designed binder) [VEGF_CKP9.54.48]	2.5	34.9
